IntAct's records for PubMed 32433612

Target: tasl_human TASL (UniProt Q9HAI6)

| effect of a mutation on the interaction | Substance |
| --- | --- |
| with no effect | Solute carrier family 15 member 4 (Homo sapiens), Q8N697 E44A |
| disrupting interaction strength | Solute carrier family 15 member 4 (Homo sapiens), Q8N697 E465A |

The remaining lines, values behind:

| Substance | effect of a mutation on the interaction |
| --- | --- |
| Solute carrier family 15 member 4 (Homo sapiens), Q8N697 E47A | with no effect |
| Solute carrier family 15 member 4 (Homo sapiens), Q8N697 E465K | disrupting interaction strength |
| Solute carrier family 15 member 4 (Homo sapiens), Q8N697 L14A;L15A | with no effect |
